Where two headings read alike, the source gives them in different places.
Assays:
[1] = biological target: T1, E. coli homoserine transsuccinylase (MetA), wild type, SEQ ID NO: 2 (plasmid pKP413GAP) (Escherichia coli, UniProt P07623); assay: biochemical; conditions: pH 7.6, read-out: Activity (%) in the presence of 1 mM L-methionine
[2] = biological target: T1, E. coli homoserine transsuccinylase (MetA), wild type, SEQ ID NO: 2 (plasmid pKP413GAP); conditions: pH 7.5, read-out: Activity (%) in the presence of 1 mM SAM
[3] = system: homoserine transsuccinylase; conditions: cell extract of E. coli W3110 transformant; 1 mM homoserine, 0.1 mM succinyl-CoA, 50 mM Tris/Cl pH 7.6
[4] = system: homoserine transsuccinylase; assay: Homoserine transsuccinylase activity test (Lee et al., 5,5'-dithiobis(2-nitrobenzoic acid), 412 nm), activity and inhibition by SAM; type: biochemical, E. coli; conditions: cell extract; 3 mM homoserine, 0.3 mM succinyl-CoA, 50 mM potassium phosphate buffer pH 7.5

Molecule | activity at 1000 µM [1] [%] | activity at 1000 µM [2] [%] | Activity (U/mg) [3] [U/mg] | Activity (U/mg) [4] [U/mg]
CSCC[C@H](N)C(=O)O [L-methionine] | 2 |  |  | 
C[S+](CC[C@H](N)C(=O)[O-])C[C@H]1O[C@@H](n2cnc3c(N)ncnc32)[C@H](O)[C@@H]1O (some centres unmarked) [SAM, S-Adenosylmethionine] |  | 0.5 |  | 
pBaBmetAext2: MetA variant with altered, extended carboxy-terminus from amino acid 297 onwards (SEQ ID No. 12) (SYIHQYLLVNNSTELWMHTRLIKRPHCDEWQGGA) |  |  | 0.045 | 0.173
pBaBmetAext: MetA variant with altered, extended carboxy-terminus from amino acid 297 onwards (SEQ ID No. 10) (SYIHHYLLVNNSTELWMHTRLIKRPHCDEWQGGA) |  |  | 0.011 | 0.082
pKP413GAP: E. coli wild-type homoserine transsuccinylase (MetA, SEQ ID No. 2) expressed from starting plasmid pKP413GAP under the GAPDH promoter (protein, listed as Escherichia coli) MPIRVPDELPAVNFLREENVFVMTTSRASGQEIRPLKVLILNLMPKKIETENQFLRLLSNSPLQVDIQLLRIDSRESRNTPAEHLNNFYCNFEDIQDQNFDGLIVTGAPLGLVEFNDVAYWPQIKQVLEWSKDHVTSTLFVCWAVQAALNILYGIPKQTRTEKLSGVYEHHILHPHALLTRGFDDSFLAPHSRYADFPAALIRDYTDLEILAETEEGDAYLFASKDKRIAFVTGHPEYDAQTLAQEFFRDVEAGLDPDVPYNYFPHNDPQNTPRASWRSHGNLLFTNWLNYYVYQITPYDLRHMNPTLD |  |  | 0.155 | 0.62
